According to US20150037339A1 (Regeneron, published 2015):

Assays:
[1] = biological target: T1, Activin AB (human, UniProt P08476 311-426; P09529 293-407); assay: SPR (Biacore), mAb captured on anti-Fc, Activin AB injected, 25 C
T1 construct: Heterodimer of one betaA and one betaB subunit; bought (R&D Systems #1006-AB-005 / #1066-AB)
T1 chain 1: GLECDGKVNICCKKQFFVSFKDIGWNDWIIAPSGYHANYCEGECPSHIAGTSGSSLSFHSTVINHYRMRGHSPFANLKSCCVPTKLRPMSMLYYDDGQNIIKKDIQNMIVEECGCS
T1 chain 2: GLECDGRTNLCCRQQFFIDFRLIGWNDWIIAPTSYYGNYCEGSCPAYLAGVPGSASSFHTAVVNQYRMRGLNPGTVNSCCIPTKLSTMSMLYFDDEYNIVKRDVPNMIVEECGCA
How it was run: (§1)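 240 s association, 600 s buffer dissociation; ka, kd fitted; KD (M) = kd/ka; t1/2 (min) = ln2/(60*kd).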

[2] = biological target: T2, Activin AC (human, UniProt P55103 237-352); assay: SPR (Biacore), mAb captured on anti-Fc, Activin AC injected, 37 C
T2 construct: Heterodimer of one betaA and one betaC subunit; bought (R&D Systems #4879-AC)
T2 sequence 1: T1 chain 1
T2 sequence 2: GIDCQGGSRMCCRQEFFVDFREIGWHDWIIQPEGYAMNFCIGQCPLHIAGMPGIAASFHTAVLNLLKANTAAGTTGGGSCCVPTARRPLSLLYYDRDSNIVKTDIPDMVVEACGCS
How it was run: as §1

[3] = biological target: T1, Activin AB; assay: SPR (Biacore), mAb captured on anti-Fc, Activin AB injected, 37 C
How it was run: as §1

[4] = biological target: T3, Activin B (human, UniProt P09529 293-407); assay: SPR (Biacore 4000), captured on anti-human Fc, 200 nM ligand injected, 37 C
T3 construct: Homodimer of two betaB subunits; bought (R&D Systems #659-AB)
T3 chain: T1 chain 2
Protocol: (§2) For the binding experiment, a Biacore 4000 instrument was used. […] All Biacore binding studies were performed in HBS-T running buffer (0.01 M HEPES pH 7.4, 0.5 M NaCl, 3 mM EDTA, 0.5 mg/ml bovine serum albumin, 0.05% v/v Surfactant P20). […] All binding measurements were performed at 37° C. […] Over the captured antibody surface was injected the TGF-beta family ligands through concentrations ranging from 3.1 nM to 200 nM.

[5] = biological target: T4, hBMP4 (human, UniProt P12644 293-408); assay: as above
T4 construct: Bought protein
T4 sequence (looked up): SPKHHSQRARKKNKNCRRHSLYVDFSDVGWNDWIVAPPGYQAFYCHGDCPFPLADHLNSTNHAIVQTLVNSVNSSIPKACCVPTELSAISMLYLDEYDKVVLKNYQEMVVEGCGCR
Protocol: as §2

[6] = biological target: T2, Activin AC; assay: as above
Protocol: as §2

[7] = biological target: T5, hBMP9 (human, UniProt Q9UK05 320-429); assay: as above
T5 construct: Bought protein
T5 sequence (looked up): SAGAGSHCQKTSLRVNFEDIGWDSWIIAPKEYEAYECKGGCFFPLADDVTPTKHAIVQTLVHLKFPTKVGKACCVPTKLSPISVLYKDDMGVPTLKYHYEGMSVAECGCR
Protocol: as §2

[8] = biological target: T6, hBMP6 (human, UniProt P22004 382-513, limits assumed); assay: as above
T6 construct: Bought protein
T6 sequence (looked up): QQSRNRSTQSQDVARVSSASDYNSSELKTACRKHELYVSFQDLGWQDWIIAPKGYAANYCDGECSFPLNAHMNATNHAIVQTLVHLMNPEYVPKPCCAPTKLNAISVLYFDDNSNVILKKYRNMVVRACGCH
Protocol: as §2

[9] = biological target: T7, hBMP2 (human, UniProt P12643 283-396); assay: as above
T7 construct: Bought protein; also called BPM2
T7 sequence (P12643 283-396 limits assumed): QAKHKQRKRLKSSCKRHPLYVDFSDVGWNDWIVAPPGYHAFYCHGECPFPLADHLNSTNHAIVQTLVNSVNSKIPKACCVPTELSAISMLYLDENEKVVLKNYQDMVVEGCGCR
Protocol: as §2

[10] = biological target: T8, GDF8 (human, UniProt O14793 267-375); assay: as above
T8 construct: Bought (R&D Systems #788-G8); also called hGDF8; growth and differentiation factor-8
Protocol: as §2

[11] = biological target: T9, GDF11 (human, UniProt O95390 299-407); assay: as above
T9 construct: Bought protein; also called hGDF11
T9 sequence (O95390 299-407 limits assumed): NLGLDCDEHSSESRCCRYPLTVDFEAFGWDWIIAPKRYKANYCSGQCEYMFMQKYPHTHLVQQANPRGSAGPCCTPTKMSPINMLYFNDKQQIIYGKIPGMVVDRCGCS
Protocol: as §2

[12] = biological target: T10, Activin A (human, UniProt P08476 311-426); assay: as above
T10 construct: Homodimer of two betaA subunits; bought (R&D Systems #338-AC); also called inhibin-betaA dimer
T10 sequence: T1 chain 1
Protocol: as §2

[13] = biological target: T1, Activin AB; assay: as above
Protocol: as §2

[14] = biological target: T2, Activin AC; assay: SPR (Biacore), mAb captured on anti-Fc, Activin AC injected, 25 C
How it was run: as §1

[15] = biological target: T3, Activin B; assay: cell-based or functional assay
[16] = biological target: T2, Activin AC; assay: cell-based or functional assay
[17] = biological target: T10, Activin A; assay: cell-based or functional assay
[18] = biological target: T1, Activin AB; assay: cell-based or functional assay
[19] = biological target: T11, Activin A (human, UniProt P08476 311-426); assay: Octet cross-competition; binder on anti-hFc tip; 50 nM hActivin A mixed with 1 uM Isotype control 12 (-) (col 12); dark grey box
T11 construct: Homodimer of two βA subunits; bought from R&D Systems (#338-AC); also called inhibin-βA dimer; human Activin A
T11 sequence: T1 chain 1
Protocol: (§3) No. 8,309,082) and Control 3 (MAB3381, available from R&D Systems, Inc., Minneapolis, Minn.) were also included in the assays. All assays were performed at 25° C. with a microtiter plate shaking rate of 1000 rpm in Octet HBST buffer (0.01 M HEPES pH7.4, 0.15M NaCl, 3 mM EDTA, 0.05% v/v Surfactant P20, 0.1 mg/mL BSA) according to manufacturer's instructions (ForteBio Corp., Menlo Park, Calif.). […] Any remaining anti-hFc binding sites on the tips were blocked by incubating the tips in a 50 ug/mL solution of irrelevant antibody for 5 minutes.

[20] = biological target: T11, Activin A; assay: Octet cross-competition; binder on anti-hFc tip; 50 nM hActivin A pre-bound with 1 uM H4H10442P2 (col 3); white box
Protocol: as §3

[21] = biological target: T11, Activin A; assay: SPR, captured mAb, 37C; no dissociation observed, kd fixed
Protocol: (§4) Antibody-antigen association was monitored for 240 seconds while dissociation in buffer was monitored for 600 seconds. Kinetic association and dissociation rate constants were determined by processing and fitting the data using Scrubber software version 2.0c. Binding equilibrium dissociation constants (KD) and dissociative half-lives (t_{1/2}) were then calculated from the kinetic rate constants as: KD (M)=kd/kₐ and t_{1/2} (min)=[ln 2/(60*kd)]. (NB=no binding observed under the conditions used; NT=not tested).

[22] = biological target: T11, Activin A; assay: Octet cross-competition; binder on anti-hFc tip; 50 nM hActivin A pre-bound with 1 uM H4H10432P2 (col 7); black box
Protocol: as §3

[23] = biological target: T11, Activin A; assay: Octet cross-competition; binder on anti-hFc tip; 50 nM hActivin A mixed with 1 uM Isotype control 13 (-) (col 13); dark grey box
Protocol: as §3

[24] = biological target: T11, Activin A; assay: Octet cross-competition; binder on anti-hFc tip; 50 nM hActivin A pre-bound with 1 uM H4H10423P (col 4); white box
Protocol: as §3

[25] = biological target: T11, Activin A; assay: SPR, captured mAb, 25C
Protocol: as §4

[26] = biological target: T12, Activin B (human, UniProt P09529 293-407); assay: SPR, captured mAb, 25C
T12 construct: Homodimer of two βB subunits; R&D Systems #659-AB
T12 chain: T1 chain 2
Protocol: as §4

[27] = biological target: T11, Activin A; assay: SPR, captured mAb, 37C
Protocol: as §4

[28] = biological target: T12, Activin B; assay: SPR, captured mAb, 37C
Protocol: as §4

[29] = biological target: T11, Activin A; assay: Octet cross-competition; binder on anti-hFc tip; 50 nM hActivin A pre-bound with 1 uM H4H10468P2 (col 2); white box
Protocol: as §3

[30] = biological target: T11, Activin A; assay: Octet cross-competition; binder on anti-hFc tip; 50 nM hActivin A pre-bound with 1 uM Control 3 (col 11); black box
Protocol: as §3

[31] = biological target: T11, Activin A; assay: Octet cross-competition; binder on anti-hFc tip; 50 nM hActivin A pre-bound with 1 uM Control 1 (col 10); black box
Protocol: as §3

[32] = biological target: T11, Activin A; assay: Octet cross-competition; binder on anti-hFc tip; 50 nM hActivin A pre-bound with 1 uM H4H10429P (col 6); black box
Protocol: as §3

[33] = biological target: T11, Activin A; assay: Octet cross-competition; binder on anti-hFc tip; 50 nM hActivin A pre-bound with 1 uM H4H10430P (col 5); black box
Protocol: as §3

[34] = biological target: T11, Activin A; assay: Octet cross-competition; binder on anti-hFc tip; 50 nM hActivin A pre-bound with 1 uM H4H10440P2 (col 9); black box
Protocol: as §3

[35] = biological target: T11, Activin A; assay: Octet cross-competition; binder on anti-hFc tip; 50 nM hActivin A pre-bound with 1 uM H4H10446P2 (col 1); white box
Protocol: as §3

B1: H4H10436P2 (antibody, human IgG4, V domains shown)
VH: QVQLVESGGGVVQPGRSLRLTCVASGFTVSSYGMHWVRQAPGKGLEWVAVMFYDESKKYYADSVKGRFTISRDNSKNTLYLQMNSLRVEDTAVYYCARDEQLDFEYWGQGTLVTVSS
VL: not shown
In the case of B1, the “50 nM Ag Bound (RU)” value [1] is reported as 28.2 RU, the Kd [1] is reported as 0.0341 nM and the koff [1] is reported as 0.000261 s⁻¹. The kon [1] was 7.66e+06 M⁻¹ s⁻¹, the t1/2 [1] was 44.2 min and the “50 nM Ag Bound (RU)” value [2] was 32.6 RU. It also gave a Kd [2] of 3.75 nM, a koff [2] of 0.00331 s⁻¹ and a kon [2] of 881000 M⁻¹ s⁻¹. For the same binder, the t1/2 [2] was 3.5 min, the “50 nM Ag Bound (RU)” value [3] was 33.9 RU and the Kd [3] was 0.0443 nM. For the same binder, the koff [3] was 0.000458 s⁻¹, the kon [3] was 1.03e+07 M⁻¹ s⁻¹ and the t1/2 [3] was 25.2 min. For the same binder, the “binding response (resonance units) for 200 nM ligand” value (“binding response (resonance units)” for short) [4] was 60.1 RU, the “binding response (resonance units)” value [5] was 19.3 RU and the “binding response (resonance units)” value [6] was 55.6 RU. The “binding response (resonance units)” value [7] was 11.7 RU, the “binding response (resonance units)” value [8] was 4 RU and the “binding response (resonance units)” value [9] was 14.9 RU. For the same binder, the “binding response (resonance units)” value [10] was -0.5 RU, the “binding response (resonance units)” value [11] was 0 RU and the “binding response (resonance units)” value [12] was 56.5 RU. The “binding response (resonance units)” value [13] was 54.3 RU, the “50 nM Ag Bound (RU)” value [14] was 30.1 RU and the Kd [14] was 2.24 nM. It also gave a koff [14] of 0.00156 s⁻¹, a kon [14] of 698000 M⁻¹ s⁻¹ and a t1/2 [14] of 7.4 min. For the same binder, the “IC50 [M], inhibition of 50 pM Activin B in A204/CAGAx12-Luc Smad2/3-luciferase bioassay” value [15] was 1.3e-10 M, the “IC50 [M], inhibition of 4 nM Activin AC in A204/CAGAx12-Luc Smad2/3-luciferase bioassay” value [16] was 1.3e-09 M and the “IC50 [M], inhibition of 100 pM Activin A in A204/CAGAx12-Luc Smad2/3-luciferase bioassay” value [17] was 2e-10 M. The “IC50 [M], inhibition of 30 pM Activin AB in A204/CAGAx12-Luc Smad2/3-luciferase bioassay” value [18] was 1.4e-10 M.

B2: H4H10436P2 (antibody, human IgG4, V domains shown)
VH: B1 VH
VL: not shown
With B2 the binding response [19] was 0.28, the binding response [20] was 1.39 and the koff [21] was ≤ 5e-05 s⁻¹. The binding response [22] was 0.23, the binding response [23] was 0.14 and the binding response [24] was 1.41. For the same binder, the “Activin A-20 nM (RU)” value [25] was 23.2 RU, the Kd [25] was 0.019 nM and the koff [25] was 0.000168 s⁻¹. The kon [25] was 8.85e+06 M⁻¹ s⁻¹, the t1/2 [25] was 68.7 min and the “50 nM Ag Bound (RU)” value [26] was 32.8 RU. It also gave a Kd [26] of 0.0554 nM, a koff [26] of 0.000528 s⁻¹ and a kon [26] of 9.52e+06 M⁻¹ s⁻¹. For the same binder, the t1/2 [26] was 21.9 min, the “Activin A-20 nM (RU)” value [27] was 29.4 RU and the Kd [27] was ≤ 0.00335 nM. For the same binder, the kon [27] was 1.49e+07 M⁻¹ s⁻¹, the t1/2 [27] was ≥ 231 min and the “50 nM Ag Bound (RU)” value [28] was 38.1 RU. The Kd [28] was 0.139 nM, the koff [28] was 0.00136 s⁻¹ and the kon [28] was 9.78e+06 M⁻¹ s⁻¹. The t1/2 [28] was 8.5 min, the binding response [29] was 1.32 and the binding response [30] was -0.04. For the same binder, the binding response [31] was 0.16, the binding response [32] was 0.36 and the binding response [33] was 0.28. For the same binder, the binding response [34] was 0.27 and the binding response [35] was 1.22.
